Results from patent US20220211858A1, “TUBULAR SUPRAMOLECULAR POLYMERS” (priority 2019, published 2022).
Read-outs that look alike come from different tables or passages of the source.

How the values were obtained:
[1] = Circulation studies of SAPDs in rats; format: in vivo, Sprague Dawley (SD) rats; settings: 10 mg/kg i.v.; for CPT remained in the bounded form: 5 min
Procedure: Circulation studies of SAPDs in rats. Female Sprague Dawley (SD) Rats (200-250 g) were randomly grouped into four groups with three rats in each group. SAPDs were all intravenously (i.v.) dosed at 10 mg/kg (CPT equivalent). The dosing volumes of SAPDs were estimated by a ratio of 1 mL for a 200 g rat. The blood samples were collected at 5 min, 15 min, 30 min, 1 h, 2 h, 4 h, 8 h, and 12 h, which were immediately centrifuged to take plasma for further analysis and stored at −80° C. The plasma proteins were precipitated using similar protocols as mentioned above in drug release section and the determination of SAPDs and free CPT in the plasma by UPLC also used the same conditions.
Estimation of SAPD concentration in plasma upon injection. To calculation the concentration after dilution, we simply set the following parameters: body weight of mice (20 g), dosing volume of mice (200 μL), blood volume of mice (1.8 mL), body weight of rat (200 g), dosing volume of mice (1 mL), blood volume of mice (18 mL) and the dosage for both mice and rats (10 mg/kg).

[2] = CD measurement of SAPD stability in plasma/serum environments; format: physicochemical, rat; settings: for change of CD absorptions versus aqueous solution: 200 μM in rat plasma, FBS, mice plasma, aged overnight
Procedure: CD measurement of SAPDs in physiological environments. Stock solutions of SAPDs were prepared at 2 mM and aged overnight. The solutions were diluted to 200 μM in 10% fetal bovine serum (FBS), 10% mice plasma and 10% rat plasma, aged overnight before CD measurement. To study the kinetic stability of the assembled SAPDs upon dilution, the stock solutions of SAPD 1 and 2 were diluted to 100 μM, 50 μM, 25 μM, 10 μM, and 5 μM in 10% rat plasma. The CD spectra were recorded at 5 min, 1 h, 4 h, and 12 h. All the CD spectra were recorded from 300 to 450 nm using a 1 mm path length quartz cell. The spectra were collected and normalized from ellipticity (mdeg) to molar ellipticity (deg·cm2·dmol^−1).
Stability of SAPDs in Protein Environments. The interactions of nanoparticles with serum proteins are known to impact the disassociation of supramolecular assemblies in biologically relevant environment. To assess the stability of assembled SAPDs in more complex biological media, we performed CD experiments to investigate their long-term stability in various serum environments. SAPDs solutions (2 mM) were diluted using rat plasma (FIG. 21C), fetal bovine serum (FBS), and mice plasma to yield a final concentration of 200 μM, which were then aged overnight before CD measurement was taken. […] We also performed experiments to assess their kinetic stability upon plasma dilution, mimicking the dissociation process of SPs after intravenous injection. Solutions of SAPD 1 and 2 (2 mM) were diluted to 100 μM, 50 μM, 25 μM, 10 μM, and 5 μM in rat plasma, and time-dependent CD spectra were recorded at 5 min, 1 h, 4 h, and 12 h. […] At 12 h, the decrease reached 22% and 33%, respectively.

HT-29 cells [3] = test: Antitumor efficacy of SAPDs at near MTD on a HT-29 tumor model; settings: for mean tumor volume: day 28, SAPD 1 12 mg/kg, SAPD 2-4 36 mg/kg i.v. days 1, 5, 9, irinotecan 100 mg/kg i.p. days 1, 8, 15
Procedure: Antitumor efficacy study of SAPDs at near MTD on a HT-29 tumor model. HT-29 tumor model was established as described above. When the averaged tumor size reached 70-110 mm^3, mice were randomly divided into six groups (n=5 for each group). Four different SAPDs were all i.v. dosed at near or slightly lower than their estimated MTDs. […] The irinotecan (i.p. injection, 100 mg/kg at days 1, 8 and 15) and the PBS groups were used as controls. All other protocols were similar to those in the above-mentioned efficacy study.

[4] = Maximum tolerated dose (MTD) dose escalation study; format: in vivo, athymic nude mice; settings: for Maximum % BW loss: n=3
Procedure: Maximum tolerated dose (MTD) studies. MTD of SAPD 1 has been previously determined in our lab (Table 1). MTDs of other SAPDs were determined by dose escalation studies in healthy female athymic nude mice (Charles River, 12-13 weeks old). A single intravenous (i.v.) injection of SAPD was dosed at day 1 and the body weights of each mouse (n=3) were recorded every day for six days and every the other day until two weeks. The dosing volume was determined based upon a ratio of 200 μL for a 20 g mouse. Doses of SAPDs used in the studied were 108, 72, 54, 45, 36 and 18 mg/kg (CPT equivalent).

HT-29 cells [5] = system: HT-29 cells
Excerpt: Antitumor efficacy study of SAPDs at the same dose on a HT-29 tumor model. […] When the averaged tumor size reached 75-95 mm^3, mice were randomly divided into six groups. […] The tumor volumes and body weights were monitored and recorded every two or three days. The tumor volume was estimated by measuring the length and width with calipers and using the equation “tumor volume=(length×width^2)/2”. Mice were euthanized once the tumor volume reached 1000 mm^3.

[6] = female, athymic nude, mouse, in vivo, iv, single i.v. injection, CPT equivalent, healthy athymic nude mice
[7] = single i.v. dose 18 mg/kg (CPT equivalent)
[8] = single i.v. dose 36 mg/kg (CPT equivalent)
[9] = single i.v. dose 45 mg/kg (CPT equivalent)
[10] = single i.v. dose 54 mg/kg (CPT equivalent)
[11] = single i.v. dose 72 mg/kg (CPT equivalent)
[12] = SAPDs 10 mg/kg i.v. days 1, 5, 9, 13, irinotecan 100 mg/kg i.p. days 1, 8, 15
[13] = day 25, SAPDs 10 mg/kg (CPT equivalent) i.v. days 1, 5, 9, 13, irinotecan 100 mg/kg i.p. days 1, 8, 15

## CC[C@]1(OC(=O)OCCSSC[C@@H](NC(C)=O)C(=O)N[C@@H](CCCCNC(=O)[C@@H](CSSCCOC(=O)O[C@]2(CC)C(=O)OCc3c2cc2n(c3=O)Cc3cc4ccccc4nc3-2)NC(C)=O)C(=O)N[C@@H](CCCCNC(=O)CCOCCOCCOCCOCCOC)C(=O)N[C@@H](CCCCNC(=O)CCOCCOCCOCCOCCOC)C(=O)N[C@@H](CCCCNC(=O)CCOCCOCCOCCOCCOC)C(=O)N[C@@H](CCCCNC(=O)CCOCCOCCOCCOCCOC)C(N)=O)C(=O)OCc2c1cc1n(c2=O)Cc2cc3ccccc3nc2-1 [SAPD 2]
[1]
  CPT remained in the bounded form: 28%
[1]; 1 h
  total CPT concentration in plasma: 7.0 µM
[1]; 2 h
  total CPT concentration in plasma: 2.2 µM
[2]
  change of CD absorptions versus aqueous solution: no noticeable changes
HT-29 cells [3]; 36 mg/kg i.v. days 1, 5, 9, n=5
  treatment related death: one treatement related death
HT-29 cells [3]
  mean tumor volume: 330 mm^3
[4]; [6]
  MTD at 2 weeks: 54 mg/kg
[4]; single i.v. dose 18 mg/kg
  Survival/Total: 3/3
  day of maximum BW loss: 5 days
[4]; [7]
  Maximum % BW loss: 6.2%
[4]; single i.v. dose 36 mg/kg
  Survival/Total: 3/3
  day of maximum BW loss: 6 days
[4]; [8]
  Maximum % BW loss: 2.1%
[4]; single i.v. dose 45 mg/kg
  Survival/Total: 3/3
  day of maximum BW loss: 2 days
[4]; [9]
  Maximum % BW loss: 4.0%
[4]; single i.v. dose 54 mg/kg
  Survival/Total: 3/3
  day of maximum BW loss: 2 days
[4]; [10]
  Maximum % BW loss: 3.5%
[4]; single i.v. dose 72 mg/kg
  Survival/Total: 2/3
  day of maximum BW loss: 2 days
[4]; [11]
  Maximum % BW loss: 11.4%
[4]; single i.v. dose 108 mg/kg
  Survival/Total: 0/3
HT-29 cells [5]; [12]
  median survival: 46 days
HT-29 cells [5]; [13]
  mean tumor volume: 255 mm^3

## CC[C@]1(OC(=O)OCCSSC[C@@H](NC(C)=O)C(=O)N[C@@H](CCCCNC(=O)[C@@H](CSSCCOC(=O)O[C@]2(CC)C(=O)OCc3c2cc2n(c3=O)Cc3cc4ccccc4nc3-2)NC(C)=O)C(=O)N[C@@H](CCCCNC(=O)CCOCCOCCOCCOCCOC)C(=O)N[C@@H](CCCCNC(=O)CCOCCOCCOCCOCCOC)C(N)=O)C(=O)OCc2c1cc1n(c2=O)Cc2cc3ccccc3nc2-1 [TT 1]
[1]
  CPT remained in the bounded form: 86%
[1]; 1 h
  total CPT concentration in plasma: 15.3 µM
  total CPT retained in the conjugate form: more than 72%
[1]; 2 h
  total CPT concentration in plasma: 8.1 µM
[2]; 5 μM in rat plasma, 5 min
  drop of CD absorption at 389 nm: 15%
[2]; 5 μM in rat plasma, 12 h
  drop of CD absorption at 389 nm: 33%
[2]; 10 μM in rat plasma, 5 min
  drop of CD absorption at 389 nm: 10%
[2]; 10 μM in rat plasma, 12 h
  drop of CD absorption at 389 nm: 22%
[2]
  change of CD absorptions versus aqueous solution: no noticeable changes
[2]; rat plasma, concentrations above 25 μM
  stability upon dilution over time: highly stable
HT-29 cells [3]
  mean tumor volume: 172 mm^3
[4]; [6]
  MTD: 24 mg/kg
[4]; single i.v. dose 4.5 mg/kg
  Survival/Total: 3/3
[4]; single i.v. dose 4.5 mg/kg (CPT equivalent)
  Maximum % BW loss: 0%
[4]; single i.v. dose 9 mg/kg
  Survival/Total: 3/3
  day of maximum BW loss: 1 days
[4]; single i.v. dose 9 mg/kg (CPT equivalent)
  Maximum % BW loss: 5.1%
[4]; single i.v. dose 15 mg/kg
  Survival/Total: 3/3
  day of maximum BW loss: 2 days
[4]; single i.v. dose 15 mg/kg (CPT equivalent)
  Maximum % BW loss: 5.0%
[4]; single i.v. dose 18 mg/kg
  Survival/Total: 3/3
  day of maximum BW loss: 1 days
[4]; [7]
  Maximum % BW loss: 6.5%
[4]; single i.v. dose 24 mg/kg
  Survival/Total: 3/3
  day of maximum BW loss: 3 days
[4]; single i.v. dose 24 mg/kg (CPT equivalent)
  Maximum % BW loss: 9.8%
[4]; single i.v. dose 30 mg/kg
  Survival/Total: 1/3
  day of maximum BW loss: 4 days
[4]; single i.v. dose 30 mg/kg (CPT equivalent)
  Maximum % BW loss: 20.6%
[4]; single i.v. dose 36 mg/kg
  Survival/Total: 0/3
  day of maximum BW loss: 3 days
[4]; [8]
  Maximum % BW loss: 21.2%
[4]; single i.v. dose 54 mg/kg
  Survival/Total: 0/3
  day of maximum BW loss: 3 days
[4]; [10]
  Maximum % BW loss: 20%
HT-29 cells [5]; 10 mg/kg i.v.
  toxicity according to body weight change: most toxicity
HT-29 cells [5]; [12]
  median survival: 56 days
HT-29 cells [5]; [13]
  mean tumor volume: 60 mm^3

## CC[C@]1(OC(=O)OCCSSC[C@@H](NC(C)=O)C(=O)N[C@@H](CCCCNC(=O)[C@@H](CSSCCOC(=O)O[C@]2(CC)C(=O)OCc3c2cc2n(c3=O)Cc3cc4ccccc4nc3-2)NC(C)=O)C(=O)N[C@@H](CCCCNC(=O)CCOCCOCCOCCOCCOC)C(=O)N[C@@H](CCCCNC(=O)CCOCCOCCOCCOCCOC)C(=O)N[C@@H](CCCCNC(=O)CCOCCOCCOCCOCCOC)C(=O)N[C@@H](CCCCNC(=O)CCOCCOCCOCCOCCOC)C(=O)N[C@@H](CCCCNC(=O)CCOCCOCCOCCOCCOC)C(=O)N[C@@H](CCCCNC(=O)CCOCCOCCOCCOCCOC)C(=O)N[C@@H](CCCCNC(=O)CCOCCOCCOCCOCCOC)C(=O)N[C@@H](CCCCNC(=O)CCOCCOCCOCCOCCOC)C(N)=O)C(=O)OCc2c1cc1n(c2=O)Cc2cc3ccccc3nc2-1 [SAPD 4]
[1]; 1 h
  total CPT concentration in plasma: 4.7 µM
[1]; 2 h
  total CPT concentration in plasma: 1.0 µM
[2]
  change of CD absorptions versus aqueous solution: some slight changes
HT-29 cells [3]
  mean tumor volume: 408 mm^3
[4]; [6]
  MTD: 72 mg/kg
[4]; single i.v. dose 18 mg/kg
  Survival/Total: 3/3
  day of maximum BW loss: 5 days
[4]; [7]
  Maximum % BW loss: 3.1%
[4]; single i.v. dose 36 mg/kg
  Survival/Total: 3/3
  day of maximum BW loss: 2 days
[4]; [8]
  Maximum % BW loss: 7.2%
[4]; single i.v. dose 45 mg/kg
  Survival/Total: 3/3
[4]; [9]
  Maximum % BW loss: 0%
[4]; single i.v. dose 54 mg/kg
  Survival/Total: 3/3
  day of maximum BW loss: 3 days
[4]; [10]
  Maximum % BW loss: 3.9%
[4]; single i.v. dose 72 mg/kg
  Survival/Total: 2/3
  day of maximum BW loss: 1 days
[4]; [11]
  Maximum % BW loss: 1.2%
[4]; single i.v. dose 108 mg/kg
  Survival/Total: 1/3
HT-29 cells [5]; mouse, in vivo
  mean tumor volume: 286 mm^3
  median survival: 47 days
